These results are taken from CN115125236A (YEASEN BIOLOGICAL TECH SHANGHAI CO LTD, dated 2022).

One test concerns the target T1, 牛血清白蛋白 (牛 (bovine, by its name), UniProt P02769 25-607).
T1 construct: also called BSA
In words: ELISA, BSA coated and blocked as control, HRP anti-flag-tag detection.

For test [1], the target named is T2, Benzonase (粘质沙雷氏菌 (Serratia marcescens), UniProt P13717 22-266).
T2 construct: Coated on the plate in the ELISA and used as the sample in the sandwich ELISA; also called 全能核酸酶; Benzonase蛋白
T2 sequence (looked up): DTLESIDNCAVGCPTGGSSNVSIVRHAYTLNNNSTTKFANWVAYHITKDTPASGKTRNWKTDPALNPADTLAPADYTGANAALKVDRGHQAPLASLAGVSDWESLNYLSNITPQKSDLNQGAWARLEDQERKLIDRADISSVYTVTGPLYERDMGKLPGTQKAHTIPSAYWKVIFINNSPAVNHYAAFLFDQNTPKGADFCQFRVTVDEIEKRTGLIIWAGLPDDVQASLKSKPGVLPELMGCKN
In words: ELISA, Benzonase coated, scFv from 1 μg/ml in twofold dilutions, HRP anti-flag-tag detection. Background: An ELISA detects its analyte on a solid surface through an enzyme-linked reagent.

Test [2] addresses T2, Benzonase. In words: sandwich ELISA, biotin-scFv4 as detection on Benzonase captured by scFv3, HRP-streptavidin.

T1 sequence (P02769 25-607 limits assumed): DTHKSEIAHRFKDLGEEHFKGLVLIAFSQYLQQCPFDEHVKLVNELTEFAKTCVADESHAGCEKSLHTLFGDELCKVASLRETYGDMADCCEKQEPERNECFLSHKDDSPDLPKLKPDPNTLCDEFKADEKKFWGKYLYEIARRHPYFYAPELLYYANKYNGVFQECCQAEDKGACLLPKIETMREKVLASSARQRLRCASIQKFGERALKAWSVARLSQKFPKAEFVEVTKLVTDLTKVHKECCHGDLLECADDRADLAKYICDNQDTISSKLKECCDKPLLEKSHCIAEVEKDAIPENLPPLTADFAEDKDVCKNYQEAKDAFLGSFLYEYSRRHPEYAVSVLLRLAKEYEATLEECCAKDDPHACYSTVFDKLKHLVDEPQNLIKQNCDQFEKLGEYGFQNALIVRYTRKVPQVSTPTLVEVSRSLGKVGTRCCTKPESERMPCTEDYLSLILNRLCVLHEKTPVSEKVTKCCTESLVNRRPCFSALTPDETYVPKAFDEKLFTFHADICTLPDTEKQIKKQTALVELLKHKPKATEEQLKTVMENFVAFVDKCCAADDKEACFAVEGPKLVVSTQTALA

B1: Benzonase单克隆抗体scFv5 (scFv)
scFv: QLMESGGGLVTPGGTLTLTCTASGFSLSNYWMSWVRQAPGKGLEWIGIISNYGSTYYASWAKGRFTISKTSTTVDLRITSPTIEDTATYFCAREFAGVFNLWGPGTLVTVSSGGGGSGGGGSGGGGSDMTQTPASVSEPVGGTVTINCQASQSVYNNKNLAWYQQKPGQPPKVLIYKASTLASGVSSRFKGSGSGTEFTLTISDLECADAATYYCQQGHDTNVQNLFGGGTEVVVKAAAGA
Turning to B1, the binding result is “no binding (tested: 1μg/ml后二倍梯度稀释)” with 牛血清白蛋白 and “binds” with Benzonase [1].

B2: Benzonase单克隆抗体scFv1 (scFv)
scFv: QLVESGGGLVTPGTPLTLTCTASGFSLSSYWMSWVRQAPGKGLEWIGVISSSGSTDYASWAKGRFTISKTSTTVDLKITSLTTEDTAIYFCARYSSDWNAYDLWGQGTLVTISSGGGGSGGGGSGGGGSVLTQTPSPVSAAVGGTVTISCQASQSVYGNNYLSWFQQKPGQPPKLLIYQASTLASGVPSRFSGSGSGTQFSLTISGVQCDDAATYYCAGWSGSGTDAVAFGGGTELEILGRSGP
As to B2, the binding result was “no binding (tested: 1μg/ml后二倍梯度稀释)” with 牛血清白蛋白 and “binds” with Benzonase [1].

B3: Benzonase单克隆抗体scFv4 (scFv)
scFv: QLMESGGGLVQPGASLTLTCTASGFSFSSNYWICWVRQAPGKGLEWIGCIYTGTSGTTYYASWAKGRFTISETSSTTVTLQMTSLTAADTATYFCSKNTYGYALAARLDLWGQGTLVTISSGGGGSGGGGSGGGGSDMTQTPASVEVAVGGTVTIKCQASQSIGSDLAWYQQKLGQPPKLLIYYASTLESGAPARFSGSGSGTEYTLTITDVQCDDAATYYCAGDYSSGNDNGFGGGTEVVVKA
Turning to B3, the binding result is recorded as “no binding (tested: 1μg/ml后二倍梯度稀释)” with 牛血清白蛋白 and “binds” in the test with Benzonase [2].

B4: Benzonase单克隆抗体scFv3 (scFv)
scFv: QLVESGGRLVTPGTPLTLTCTASGFALSGYYMTWVRQAPGKGLEWIGITHPSGSTYYASWVKGRFTISKASTTVDLRITSPTTEDTATYFCARVWTHYSSGGGDLWGPGTLVTISSGGGGSGGGGSGGGGSDLTQTPSSVSAAVGGTVTINCQSSESVYKNNDLSWYQQKPGQPPKLLISAASTLASGVPSRFKGSGSGTQFTLTISGVQCDDAATYYCQQGYSGDNVVNTFGGGTEVVVK
B4: the binding result is reported as “no binding (tested: 1μg/ml后二倍梯度稀释)” with 牛血清白蛋白 and “binds” in the test with Benzonase [1].

B5: Benzonase单克隆抗体scFv6 (scFv)
scFv: QLVESGGDLVKPGASLTLTCTASGFTLSSYWMCWVRQAPGKGLEWIGCIDTGSSDSTYYANWAKGRFTISKASSTTVTLQMTSVTPADTATYFCARHLRYSTNNNDWDLWGPGTLVTVSSGGGGSGGGGSGGGGSDLTQTPASVEAAVGDTVTIKCQASQSIYNYLAWYQQKPGQPPKVLIYAASNLASGVPSRFSGSGSGTQFTLTISGVQCDDAATYYCAGAYSTYGDNGFGGGTEVVVKA
On to B5, for which the binding result in the test with 牛血清白蛋白 is given as “no binding (tested: 1μg/ml后二倍梯度稀释)”; with Benzonase [1] it was “binds”.
